Paper PMC6764996

Experiments:
[1] = target: full-length human DNA polymerase θ (Polθ) (human) (UniProt O75417); assay: negative staining electron microscopy (single particles); 200 nM protein pre-incubated with 2 μM 26 nt ssDNA; 25 mM Tris-HCl pH 8.8, 1 mM DTT, 10 mM MgCl2, 2 mM ATP; 37 °C, 30 min; 2% uranyl acetate
[2] = target: full-length human DNA polymerase θ (Polθ) (human) (UniProt O75417); assay: negative staining electron microscopy (single particles); 200 nM protein without ssDNA; 25 mM Tris-HCl pH 8.8, 1 mM DTT, 10 mM MgCl2, 2 mM ATP; 37 °C, 30 min; applied to lacey carbon grids, 2% uranyl acetate
[3] = target: full-length human DNA polymerase θ (Polθ) (human) (UniProt O75417); assay: scanning force microscopy (volume measurements); 10 nM protein with 20 nM 26 nt ssDNA; 25 mM Tris-HCl pH 8.8, 30 mM NaCl, 10 mM MgCl2, 2 mM ATP, 0.01% NP-40, 1 mM DTT; 37 °C, 30 min; deposited on mica; volumes normalised to the monomer's volume

Substance: full-length human DNA polymerase θ (Polθ), O75417 1-2590
- fold increase in large > 1000 Å multimers with ssDNA against without ssDNA [1]: 9 fold
- percent of Polθ as large (> 1000 Å) multimers (without ssDNA) [2]: 3%
- percent of Polθ as tetramers or larger (with ssDNA) [3]: 62%
